Data as given in the supplement of paper PMC12764529.
± gives the half width of the 95% confidence interval.

How the values were obtained:
[1] = folding stability dG unfold from trypsin proteolysis; higher = more stable
In short: (§1)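 Designed mini-proteins (under 80 residues, no cysteine) in a PA-tagged cDNA display construct were digested with trypsin and chymotrypsin. Each protease was used at 11 concentrations (threefold dilutions) plus a no-protease condition, followed by sequencing. K50 was inferred by Bayesian fitting of sequencing counts, and unfolding free energy was derived against a sequence-predicted unfolded-state K50 and a shared folded-state K50, per protease or combined. Only designs with AlphaFold2 dimer inter-PAE above 15 were kept.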

[2] = folding stability dG unfold from chymotrypsin proteolysis; higher = more stable
In short: as §1

[3] = folding stability dG unfold (combined trypsin and chymotrypsin); higher = more stable
In short: as §1

SKTIEIEIRVGGELYRIKIKVKRKGEPEEEIELTVPAGMSIEEIAARLKELYPDLKVEIVEIERLPPPEPSA [r9_364_TrROS_Hall]
folding stability dG unfold [1]: 2.98 ± 0.072 kcal/mol | folding stability dG unfold [2]: 4.17 ± 0.11 kcal/mol | folding stability dG unfold [3]: 3.86 ± 0.082 kcal/mol

SKTIMIPANMPIDFIRKIARNAAKNGPPVKITIMIPDNPKIKEWLEEAGFPVEIERNKENNMQMITIEVPSA [r9_759_TrROS]
folding stability dG unfold [1]: 1.8 ± 0.029 kcal/mol | folding stability dG unfold [2]: 1.95 ± 0.028 kcal/mol | folding stability dG unfold [3]: 1.91 ± 0.07 kcal/mol

SKTLTLEVEVPEGPVRIVVEASDGSRLEAEVPADEKVTFTIPIPPDIPEETKVTVRVYNPETGEVTELEASA [r9_275_TrMRF]
folding stability dG unfold [1]: 0.353 ± 0.063 kcal/mol | folding stability dG unfold [2]: 1.11 ± 0.069 kcal/mol | folding stability dG unfold [3]: 0.789 ± 0.066 kcal/mol

SKTVIIEVPAKDLDKIKELIKKLKPGQKVKIVFKDANGKLITVTIEVKPAPPPKISLEELSEEQRKALEKSA [r9_1103_TrROS_Hall]
folding stability dG unfold [1]: 1.53 ± 0.081 kcal/mol | folding stability dG unfold [2]: 1.89 ± 0.23 kcal/mol | folding stability dG unfold [3]: 1.79 ± 0.28 kcal/mol

SKVEIEVERLPDGTLLVRATAEIPGIPGEKIELAVLVRLPAPERVEVRLLAAPPVETVTETRTYSEEEKKSA [r9_1009_TrROS_Hall]
folding stability dG unfold [1]: 1.27 ± 0.12 kcal/mol | folding stability dG unfold [2]: 1.52 ± 0.11 kcal/mol | folding stability dG unfold [3]: 1.46 ± 0.17 kcal/mol

SKVKVYIIKKDKVIPEIELDVSSVEEAVEKVLEYISKLPKNTPYLVRIEVEKYDPATGKKSYGTLLLPVGSA [r9_245_TrMRF]
folding stability dG unfold [1]: 2.76 ± 0.048 kcal/mol | folding stability dG unfold [2]: 4.53 ± 0.095 kcal/mol | folding stability dG unfold [3]: 4.05 ± 0.1 kcal/mol

SKVTIYFPNMPPEEIIDAIRKNPGKPVEIWMMPNNPDRFKNWLQDAKIEVEPQPNPDGQPWVKMEIEVPDSA [r9_1138_TrROS]
folding stability dG unfold [1]: 0.571 ± 0.035 kcal/mol | folding stability dG unfold [2]: 0.969 ± 0.095 kcal/mol | folding stability dG unfold [3]: 0.794 ± 0.078 kcal/mol

SKYVQVRFPNYTIMVKKRKSPNGKPEVEVMLYNPPNGKMIPVEVKSPEDAEEAVKDAIRAMFPDEELRDLSA [r9_749_TrROS]
folding stability dG unfold [1]: 0.827 ± 0.09 kcal/mol | folding stability dG unfold [2]: 0.46 ± 0.47 kcal/mol | folding stability dG unfold [3]: 0.687 ± 0.17 kcal/mol

SLEVARELGLPVERAIPTSVDPFNGRTHLVVLVSLPSRFVRIEVDVRYEPDPDGRLIPRVEVLRIEVFPESA [r9_613_TrMRF]
folding stability dG unfold [1]: 2.59 ± 0.048 kcal/mol | folding stability dG unfold [2]: 3.67 ± 0.04 kcal/mol | folding stability dG unfold [3]: 3.21 ± 0.05 kcal/mol

SLKNGDPIMVKIEIEQYNPKNGKPQEQKHSIMIPPGDPVTINIPGLPPGYKVRVEIYPMDGKPIGEHTIPSA [r9_478_TrROS]
folding stability dG unfold [1]: 1.73 ± 0.12 kcal/mol | folding stability dG unfold [2]: 1.14 ± 0.047 kcal/mol | folding stability dG unfold [3]: 1.48 ± 0.14 kcal/mol

SLKPGEPRTVEMTMIIPITPDEIAKLFGLDIPPGTYIMVEMRMRVPPNADIEMDPDIHLYDPDDNKWFPISA [r9_349_TrROS]
folding stability dG unfold [1]: 2.18 ± 0.089 kcal/mol | folding stability dG unfold [2]: 3.29 ± 0.086 kcal/mol | folding stability dG unfold [3]: 2.86 ± 0.22 kcal/mol

SLLENLKIEEIKEYTLPDGSPAIVIRFGDYTIVFNPGTGELRIYKGDKIIRTITIPFPIPDPNKPEDLAASA [r9_1065_TrMRF]
folding stability dG unfold [1]: 3.22 ± 0.16 kcal/mol | folding stability dG unfold [2]: 3.405 ± 0.034 kcal/mol | folding stability dG unfold [3]: 3.28 ± 0.084 kcal/mol

SLPNRPLVPFELELRLPRFEVRVRLYRLPDGSYLLVAEIRFPNGLTARAEFVLDPVTGRIYLVRVEVRPESA [r9_795_TrMRF]
folding stability dG unfold [1]: 3.82 ± 0.041 kcal/mol | folding stability dG unfold [2]: 4.56 ± 0.05 kcal/mol | folding stability dG unfold [3]: 4.29 ± 0.05 kcal/mol

SLPYTPSTAELTLTLPGGEVKVKANVYTLPDGSTITIATFPDGSVAVYDPSLGRLVLYDPSTGKPIAVLGSA [r9_970_TrMRF]
folding stability dG unfold [1]: 2.41 ± 0.038 kcal/mol | folding stability dG unfold [2]: 2.173 ± 0.013 kcal/mol | folding stability dG unfold [3]: 2.32 ± 0.028 kcal/mol

SLSITVPPDKGLVLVNEGLKDGKVKLFLDDKVEEVEVPAGETLVFEVPPDYKGFKLEVIGDDGVVLSVDGSA [r9_143_TrMRF]
folding stability dG unfold [1]: 0.627 ± 0.13 kcal/mol | folding stability dG unfold [2]: 0.322 ± 0.29 kcal/mol | folding stability dG unfold [3]: 0.599 ± 0.22 kcal/mol

SLSKSTPVSSLEEALKIAKEAAEEFEKELGKPYPVLVEVEFEPLEDGSVLVRFKLYRPEEGKYLREIEVGSA [r9_794_TrMRF]
folding stability dG unfold [1]: 0.874 ± 0.064 kcal/mol | folding stability dG unfold [2]: 1.67 ± 0.2 kcal/mol | folding stability dG unfold [3]: 1.38 ± 0.18 kcal/mol

SLTLTDPVLVLVEVDLYNPETGAPTKRSLAVLVPPGTPVTVTLPGVHPDARVRVTVYTPNGKPLGEFELPSA [r9_478_TrMRF]
folding stability dG unfold [1]: 2.1 ± 0.13 kcal/mol | folding stability dG unfold [2]: 2.12 ± 0.12 kcal/mol | folding stability dG unfold [3]: 2.26 ± 0.14 kcal/mol

SMEDMSVEELLELLREKLREAREKGKSLEDIKITIVIVAETEEEKEAIAKALKEEFPEIKEIKIEVLPPESA [r9_341_TrROS_Hall]
folding stability dG unfold [1]: 3.06 ± 0.14 kcal/mol | folding stability dG unfold [2]: 2.64 ± 0.15 kcal/mol | folding stability dG unfold [3]: 2.92 ± 0.26 kcal/mol

SMEEELPPKVTEVVVKVPLSPDASPEEIAAARALAAELAAALEAAGYRDVEVTVEPTEPGALVIRARVVVSA [r9_865_JUSTAS]
folding stability dG unfold [1]: 2.79 ± 0.036 kcal/mol | folding stability dG unfold [2]: 4.36 ± 0.057 kcal/mol | folding stability dG unfold [3]: 3.908 ± 0.034 kcal/mol

SMEEFAKSLPDVKIETKPLSPDEIEITVYIPSDPEKAKKVEEIVKKLAEEIEKKTGIKVKVTFKPVPPEESA [r9_1099_JUSTAS]
folding stability dG unfold [1]: 3.24 ± 0.24 kcal/mol | folding stability dG unfold [2]: 3.32 ± 0.21 kcal/mol | folding stability dG unfold [3]: 3.59 ± 0.68 kcal/mol

SMEELLEKALEEAKEAAEKGEKTVIIEIRVDGKTFRIEIDVETGEIVKIEKEKREDGSEIFRIEIKLPEPSA [r9_308_TrROS_Hall]
folding stability dG unfold [1]: 0.695 ± 0.07 kcal/mol | folding stability dG unfold [2]: 1.61 ± 0.086 kcal/mol | folding stability dG unfold [3]: 1.3 ± 0.39 kcal/mol
